Data published in article PMC9854632, “Relationships between the Reversible Oxidation of the Single Cysteine Residue and the Physiological Function of the Mitochondrial Glutaredoxin S15 from Arabidopsis thaliana” (Antioxidants, 2022).
Each block holds one molecule with its values, some of them ahead of it.

Experiments:
Cys = conditions: cited from earlier work
Cys91 = Cys91 (UniProt position 91, PESPQCGFSSL); assay: chemical modification; conditions: room temperature; not stated (100 mM buffers, no added salt stated); 100 mM citrate buffers from pH 2.0 to 6.0; 100 mM phosphate buffers from pH 6.5 to 8.0; reduced (TCEP pre-reduced, desalted) apo monomer, 10 µM
[1] = target: T1, AtGRXS15 (reduced monomer) (Arabidopsis thaliana, UniProt Q8LBK6); assay: mBBr fluorescence titration of remaining free thiol; assay type: binding; conditions: oxidant concentration for half-maximal protein thiol oxidation, no equilibrium or Michaelis constant; covalent (Cys91); 5 µM protein, 1 h, RT, 30 mM Tris-HCl pH 8.0, 200 mM NaCl
T1 construct: gene GRXS15; about 17 kDa on mPEG24 gel
T1 sequence (Q8LBK6 38-169): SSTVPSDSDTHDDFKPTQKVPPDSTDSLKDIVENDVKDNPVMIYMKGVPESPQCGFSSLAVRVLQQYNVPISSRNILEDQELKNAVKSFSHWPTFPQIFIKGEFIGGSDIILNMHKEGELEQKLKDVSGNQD

[2] = target: the molecule itself; assay: non-reducing SDS-PAGE after oxidation and thiol alkylation (mPEG24); pre-reduced AtGRXS15 (13 µM) incubated with 5- or 10-fold molar excess of H2O2, DTTox, GSSG or GSNO for 2 h at RT; TCA precipitation, mPEG24 alkylation, non-reducing SDS-PAGE; dimer mainly with H2O2, to some extent with GSSG and GSNO, no oxidation with DTTox

Molecule: Monothiol glutaredoxin 5, mitochondrial (Grx5) (Saccharomyces cerevisiae)
pKa (Cys): ~5.0

Molecule: Glutaredoxin S15, mitochondrial (AtGRXS15) (Arabidopsis thaliana)
pKa (Cys91): 4.0 ± 0.1

S0.5 [1]: 21 ± 1 µM
Molecule: N[C@@H](CCC(=O)N[C@@H](CSN=O)C(=O)NCC(=O)O)C(=O)O [GSNO]

Molecule: Glutaredoxin S16 (AtGRXS16) (Arabidopsis thaliana)
pKa (Cys): ~3.9

B1: Arabidopsis thaliana mitochondrial glutaredoxin S15 (natural protein, UniProt Q8LBK6 38-169, looked up)
chain: T1 sequence (Q8LBK6 38-169)
notes: single cysteine Cys91 in the CGFS motif; no tag is named; The fractions kept after the last SEC step were the monomeric ones; The dimer seen after oxidation is covalent (intermolecular disulfide); also called AtGRXS15; GRXS15; source: E. coli C41(DE3) with pSBET helper plasmid, purified (ammonium sulfate, SEC, Q-sepharose, Superdex S75); pre-reduced with TCEP
stoichiometry N [2]: 2
